Measurements from paper PMC8654040 (Nature structural & molecular biology, 2021).

Legend:
[1] = biological target: T1, FUS SYGQ LC (FUS 1-163), N-terminal low complexity domain (UniProt P35637 1-163); assay: co-sedimentation
T1 sequence (looked up): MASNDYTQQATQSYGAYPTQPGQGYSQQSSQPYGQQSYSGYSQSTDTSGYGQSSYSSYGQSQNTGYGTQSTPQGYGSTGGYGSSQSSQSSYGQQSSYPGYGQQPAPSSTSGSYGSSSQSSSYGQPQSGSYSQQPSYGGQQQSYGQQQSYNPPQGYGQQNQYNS

[2] = biological target: T1, FUS SYGQ LC (FUS 1-163), N-terminal low …; assay: intermolecular NOE NMR of a condensed phase

| binding result [1] | Binder | binding result [2] |
| --- | --- | --- |
| binds | 488-labeled FUS SYGQ LC (FUS 1-163 labelled with DyLight 488 NHS ester) (domain or fragment, UniProt P35637 1-163, looked up, DyLight 488 (NHS ester labelling)) MASNDYTQQATQSYGAYPTQPGQGYSQQSSQPYGQQSYSGYSQSTDTSGYGQSSYSSYGQSQNTGYGTQSTPQGYGSTGGYGSSQSSQSSYGQQSSYPGYGQQPAPSSTSGSYGSSSQSSSYGQPQSGSYSQQPSYGGQQQSYGQQQSYNPPQGYGQQNQYNS |  |
|  | FUS RGG3 (453-507) (domain or fragment, UniProt P35637 453-507, looked up) DGPGGGPGGSHMGGNYGDDRRGGRGGYDRGGYRGRGGDRGGFRGGRGGGDRGGFG | binds |
